Consider one molecule from patent US20250213715A1, “ANTI-CSPG4 BINDING AGENTS, CONJUGATES THEREOF AND METHODS OF USING THE SAME” (Ardeagen Corporation, priority 2020, published 2025).

A word on the EC50: it is the concentration that produces a half-maximal response.

Test [1] deals with T1, CSPG4 (chondroitin sulfate proteoglycan 4) on human tumor cell lines (human, UniProt Q6UVK1 30-2322).
T1 construct: Endogenous CSPG4 on human cell lines (A2058, Malme-3M, A375, SW1353, NCI-H2052); also called HMW MAA; MCSP
T1 sequence (Q6UVK1 30-2322 limits assumed): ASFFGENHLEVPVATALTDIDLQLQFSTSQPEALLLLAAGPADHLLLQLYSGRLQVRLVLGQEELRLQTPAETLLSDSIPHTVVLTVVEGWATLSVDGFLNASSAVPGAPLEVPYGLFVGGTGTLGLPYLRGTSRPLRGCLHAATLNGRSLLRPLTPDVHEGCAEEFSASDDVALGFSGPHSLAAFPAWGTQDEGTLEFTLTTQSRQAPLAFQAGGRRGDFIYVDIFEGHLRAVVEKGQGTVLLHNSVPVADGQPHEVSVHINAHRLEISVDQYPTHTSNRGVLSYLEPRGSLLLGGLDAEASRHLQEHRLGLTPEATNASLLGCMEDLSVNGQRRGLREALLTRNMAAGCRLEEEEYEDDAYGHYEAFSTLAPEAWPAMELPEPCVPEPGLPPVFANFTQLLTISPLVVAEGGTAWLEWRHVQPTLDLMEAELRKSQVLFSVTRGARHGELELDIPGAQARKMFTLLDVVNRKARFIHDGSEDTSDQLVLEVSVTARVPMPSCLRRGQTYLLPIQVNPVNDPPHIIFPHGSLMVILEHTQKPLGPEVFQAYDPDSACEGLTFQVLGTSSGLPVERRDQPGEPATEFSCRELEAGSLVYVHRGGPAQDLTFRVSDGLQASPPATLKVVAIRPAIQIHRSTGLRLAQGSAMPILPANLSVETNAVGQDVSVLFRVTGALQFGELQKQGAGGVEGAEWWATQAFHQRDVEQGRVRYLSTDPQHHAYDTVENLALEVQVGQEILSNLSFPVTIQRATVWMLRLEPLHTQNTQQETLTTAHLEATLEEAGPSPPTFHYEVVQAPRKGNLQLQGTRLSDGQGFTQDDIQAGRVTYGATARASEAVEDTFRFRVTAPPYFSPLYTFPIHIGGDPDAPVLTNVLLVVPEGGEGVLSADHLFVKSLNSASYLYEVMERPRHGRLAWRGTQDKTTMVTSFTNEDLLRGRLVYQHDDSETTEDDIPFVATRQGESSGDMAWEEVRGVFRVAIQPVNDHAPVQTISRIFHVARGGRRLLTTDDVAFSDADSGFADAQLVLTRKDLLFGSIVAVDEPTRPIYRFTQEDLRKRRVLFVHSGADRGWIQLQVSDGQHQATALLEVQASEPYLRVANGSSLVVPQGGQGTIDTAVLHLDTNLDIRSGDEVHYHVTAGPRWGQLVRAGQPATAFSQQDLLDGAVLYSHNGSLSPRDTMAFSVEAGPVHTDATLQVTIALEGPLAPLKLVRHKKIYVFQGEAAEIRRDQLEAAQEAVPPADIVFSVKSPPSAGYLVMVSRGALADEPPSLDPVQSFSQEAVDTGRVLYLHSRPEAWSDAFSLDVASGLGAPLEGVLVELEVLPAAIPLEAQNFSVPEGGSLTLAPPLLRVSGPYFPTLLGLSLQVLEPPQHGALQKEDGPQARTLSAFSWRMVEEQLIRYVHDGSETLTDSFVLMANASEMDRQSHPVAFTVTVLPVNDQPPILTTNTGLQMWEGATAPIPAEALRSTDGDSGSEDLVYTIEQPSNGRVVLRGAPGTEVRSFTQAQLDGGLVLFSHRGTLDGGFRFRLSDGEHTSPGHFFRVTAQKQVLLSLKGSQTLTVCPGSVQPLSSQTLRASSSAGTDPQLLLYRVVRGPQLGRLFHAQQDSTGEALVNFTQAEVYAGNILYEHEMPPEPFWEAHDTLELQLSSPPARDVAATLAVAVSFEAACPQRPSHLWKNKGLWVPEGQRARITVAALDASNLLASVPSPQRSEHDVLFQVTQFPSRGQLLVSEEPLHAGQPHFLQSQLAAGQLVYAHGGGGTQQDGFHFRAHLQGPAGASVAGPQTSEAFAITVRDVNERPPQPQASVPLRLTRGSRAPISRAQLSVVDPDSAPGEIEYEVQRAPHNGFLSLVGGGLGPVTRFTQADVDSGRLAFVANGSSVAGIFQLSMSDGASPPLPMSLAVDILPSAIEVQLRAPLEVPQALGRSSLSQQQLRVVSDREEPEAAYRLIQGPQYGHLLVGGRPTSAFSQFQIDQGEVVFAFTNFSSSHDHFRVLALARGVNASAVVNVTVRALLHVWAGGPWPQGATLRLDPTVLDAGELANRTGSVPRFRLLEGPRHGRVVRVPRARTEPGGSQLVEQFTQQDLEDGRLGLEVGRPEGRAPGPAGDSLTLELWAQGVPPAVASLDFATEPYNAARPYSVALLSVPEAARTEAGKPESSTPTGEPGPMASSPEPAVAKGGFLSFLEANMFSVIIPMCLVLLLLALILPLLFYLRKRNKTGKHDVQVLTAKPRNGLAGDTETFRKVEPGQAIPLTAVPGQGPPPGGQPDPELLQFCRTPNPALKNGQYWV
As to the kind of experiment: flow cytometry on A375 melanoma cells, 6-point dose curve, anti-hIgG-AF488. Here is the method:
(§1) Flow Cytometry—Cells were rinsed with PBS (phosphate buffered saline, pH 7.4) and harvested with Versene (Thermo Fisher) prior to incubation with FACs buffer (PBS+1% fetal bovine serum (FBS; source BioSun) containing test antibody or ADCs for 1 h at 4° C. Cells were rinsed and washed with FACs buffer (PBS+1% FBS) and detection was performed with anti-bigG-AF488. Cells were analyzed on a FACs Canto II (BD Biosciences). Quantitative FACs (qFACs) was performed to measure the number of antigen binding sites with the DAKO QifiKit (DAKO, Carpinteria, CA), according to the manufacturer's directions.
(§2) The CSPG4+A2058 and A375 melanoma and the lung NCI-H2052 and NCI-H1975 cell lines were incubated with increasing concentrations of the antibody (6-point dose curve) for 1 hr at 4° C. Detection was done with an anti-hIgG-AF488 secondary antibody.
(§3) The data were graphed and estimated binding constants (EC50 in table) were determined with Prism (GraphPad Software, San Diego, CA).
A general note: In flow cytometry, cells or beads pass a laser one at a time.

Test [2] has as its target T1, CSPG4 (chondroitin sulfate proteoglycan …). As to the kind of experiment: flow cytometry on NCI-H2052 lung cells, 6-point dose curve, anti-hIgG-AF488. The protocol:
as §1, §2, §3

For test [3] the target is unchanged. As to the kind of experiment: flow cytometry on A2058 melanoma cells, 6-point dose curve, anti-hIgG-AF488. The protocol: as §1, §2, §3
Test [4] shares this target. As to the kind of experiment: flow cytometry on Malme-3M melanoma cells, 8-point dose curve, anti-hIgG-AF488. Here is the method:
as §1
(§4) FACs binding of ARD107 antibody and corresponding conjugates to CSPG4-positive cell lines was conducted. The melanoma A2058 and Malme-3M, the SW1353 chondrosarcoma, and the NCI-H1975 lung cell lines were incubated with increasing concentrations (8-point dose curve) of the antibody, conjugates (ARD107-vcMMAE or ARD107-SN38 (ARD107-CL2A-SN-38)), or isotype control (hIgG1) for 1 hr at 4° C. Detection was done with an anti-hIgG-AF488 secondary antibody.

For test [5] the target is unchanged. As to the kind of experiment: flow cytometry on SW1353 chondrosarcoma cells, 8-point dose curve, anti-hIgG-AF488. Here is the method: as §1, §4
The target is the same in test [6]. As to the kind of experiment: flow cytometry on A2058 melanoma cells, 8-point dose curve, anti-hIgG-AF488. Here is the method:
as §1, §4

B1: ARD107 antibody (antibody, human IgG1, kappa, V domains shown)
VH: EVQLQESGPGLVKPSQSLSLTCSVTGYSITSGYYWNWIRQFPGNKLEWMGYITYDGSNNYNPSLKNRISITRDTSKNQFFLKLNSVTTEDTATYYCADFDYWGQGTTLTVSS
VL: DIVLTQSPSSLSASLGDRVTISCSASQGIRNYLNWYQQRPDGTVKLLIYYTSSLHSGVPSRFSGSGSGTDYSLTISNLEPEDIATYYCQQYSKLPWTFGGGTKLEIKR
notes: also called unconjugated ARD107 monoclonal antibody
B1: the EC50 in test [1] stood at 190 pM; in test [2], 300 pM; in test [3] it was 240 pM; in test [4], 590 pM; in test [5], 210 pM; in test [6], 480 pM.
